{
  "source": "paper PMC8706816",
  "about": "“Hydrogen Sulfide Improves the Cold Stress Resistance through the CsARF5-CsDREB3 Module in Cucumber”",
  "binders": {"B1": {"name": "CsDREB3 promoter probe (dsDNA)", "DNA 1": "ATCGGGGTAAGAGACATTAAGAAACA", "DNA 2": "TGTTTCTTAATGTCTCTTACCCCGAT"}},
  "target": "T1, CsARF5-HIS (Cucumis sativus, UniProt A0A0A0LE69 1-948)",
  "T1 sequence": "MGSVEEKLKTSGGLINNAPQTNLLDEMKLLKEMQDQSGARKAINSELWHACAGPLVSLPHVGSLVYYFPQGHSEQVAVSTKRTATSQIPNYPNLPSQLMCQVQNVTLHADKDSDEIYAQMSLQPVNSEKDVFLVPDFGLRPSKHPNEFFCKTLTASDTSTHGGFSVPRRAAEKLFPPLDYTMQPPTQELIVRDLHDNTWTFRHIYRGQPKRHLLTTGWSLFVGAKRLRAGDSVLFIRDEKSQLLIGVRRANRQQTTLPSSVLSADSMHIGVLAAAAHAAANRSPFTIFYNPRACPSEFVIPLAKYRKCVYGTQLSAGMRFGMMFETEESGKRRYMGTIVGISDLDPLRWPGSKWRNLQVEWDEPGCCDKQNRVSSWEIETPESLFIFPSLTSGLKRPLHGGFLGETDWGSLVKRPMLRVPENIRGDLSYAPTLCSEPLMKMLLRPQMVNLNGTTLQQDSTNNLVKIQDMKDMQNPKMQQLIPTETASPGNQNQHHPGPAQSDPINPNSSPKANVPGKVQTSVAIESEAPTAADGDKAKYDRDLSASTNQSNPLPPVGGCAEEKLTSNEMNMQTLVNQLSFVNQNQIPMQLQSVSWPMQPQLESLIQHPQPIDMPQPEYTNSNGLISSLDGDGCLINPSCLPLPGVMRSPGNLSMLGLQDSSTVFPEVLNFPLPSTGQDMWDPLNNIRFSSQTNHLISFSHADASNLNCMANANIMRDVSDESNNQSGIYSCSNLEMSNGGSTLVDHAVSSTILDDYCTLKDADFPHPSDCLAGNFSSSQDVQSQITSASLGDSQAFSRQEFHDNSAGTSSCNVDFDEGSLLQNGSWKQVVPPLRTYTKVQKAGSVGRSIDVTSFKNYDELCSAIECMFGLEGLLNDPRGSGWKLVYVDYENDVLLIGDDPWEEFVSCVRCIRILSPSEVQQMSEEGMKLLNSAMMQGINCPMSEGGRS",
  "experiment": "EMSA; EMSA: protein and probe incubated at 24 °C for 30 min, nondenaturing acrylamide gel; buffer, salt and pH not stated",
  "conditions": "protein: recombinant; tags: His; label: biotin",
  "data": [
    {"binder": "B1", "values": [
      {"measurement": "binding result", "result": "binds"}
    ]}
  ]
}
